{
  "source": "IntAct's records for PubMed 23238393",
  "parents": {"B1": {"name": "Ubiquitin-like protein ATG12B (Arabidopsis thaliana (Mouse-ear cress)), Q9LVK3 (parent)", "chain": "MATESPNSVQKIVVHLRATGGAPILKQSKFKVSGSDKFANVIDFLRRQLHSDSLFVYVNSAFSPNPDESVIDLYNNFGFDGKLVVNYACSMAWG", "partner": "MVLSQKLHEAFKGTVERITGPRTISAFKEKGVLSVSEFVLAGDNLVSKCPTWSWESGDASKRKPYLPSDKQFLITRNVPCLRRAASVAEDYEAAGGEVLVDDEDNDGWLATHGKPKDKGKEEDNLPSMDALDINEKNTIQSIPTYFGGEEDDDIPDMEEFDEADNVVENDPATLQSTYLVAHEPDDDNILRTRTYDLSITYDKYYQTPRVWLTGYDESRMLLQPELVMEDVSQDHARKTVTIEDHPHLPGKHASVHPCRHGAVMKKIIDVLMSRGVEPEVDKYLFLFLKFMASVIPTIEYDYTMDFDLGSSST"}},
  "data": [
    {"variants_of": "B1", "settings": "with atg3_arath ATG3, Q0WWQ1", "values": [
      {"variant": "MATESPNSVQKIVVHLRATGGAPILKQSKFKVSGSDKFANVIDFLRRQLHSDSLFVYVNSAASPNPDESVIDLYNNFGFDGKLVVNYACSMAWG", "note": "[F62A]", "effect of a mutation on the interaction": "decreasing interaction"}
    ]},
    {"variants_of": "B1", "settings": "with atg3_arath ATG3, Q0WWQ1", "remark": "another data set of the same source", "values": [
      {"variant": "MATESPNSVQKIVVHLRATGGAPILKQSKFKVSGSDKFANVIDFLRRQLHSDSLFVAVNSAFSPNPDESVIDLYNNFGFDGKLVVNYACSMAWG", "note": "[Y57A]", "effect of a mutation on the interaction": "decreasing interaction"}
    ]}
  ]
}
